Data from patent publication US6537972B1, “Compositions and methods for inhibiting human immunodeficiency virus infection by down-regulating human cellular genes” (Subsidiary No. 3., Inc., priority 1997, dated 2003).

B1: CF-319: GSE; sense, identity with the gene for the ND6 subunit of human NADH dehydrogenase (nucleic acid)
sense: GATCCTCCCGAATCAACCCTGACCCCTCTCCTTCATAAATTATTCAGCTTCCTACACTATTAAAGTTTACCACAACCACCACGCCATCATACTCCTTCAC
B2: CF-117: GSE; antisense, gene for the ND6 subunit of human NADH dehydrogenase (nucleic acid)
antisense: GTGAAAGAGTATGATGGGGTGGTGGTTGTCGTAAACTTTAATAGTGTAGGAAGCTGAATAATTTATAAAGGAGAGGGGACAGGGTTGATTCGGGAGGATC
B3: CF-101: GSE; sense, identity with the gene for the ND2 subunit of human NADH dehydrogenase (nucleic acid)
sense: CATCAGCCCTTCTTAACATCTACTTCTACCTACGCCTAATCTACTCCACCTCAATCACACTACTCCCCATATCTAACAACGTAAAAATAAAATGACAGTTTGAGCATACAAAACCCACCCCATTCCTCCCCACACTCATCGCC
B4: CF-315: GSE; antisense of a sequence with identity to the gene for the ND6 subunit of human NADH dehydrogenase (nucleic acid)
antisense: AGATCCTATTGGTGCGTGGGCTTTGTATGATTATGGGCGTAGATTAGTAGTAGTTACTGGTTGAACATTGTTTGTTGGTGTATATATTGTAATTGGGATTGCTCGGGGGAATAGGTTATGTGATTAGGAGTAGGG
B5: CF-128: GSE; sense, gene for the ND4 subunit of human NADH dehydrogenase (nucleic acid)
sense: TCCTAGTCCTCACAATCATGGCAAGCCAGCGCCACTTATCCAGTGAACCACTATCACGAAAAAAACTCTACCTCTCTATACTAATCTCCCTACAAATCTCCTTAATTATAATATTCACAACCACAGA
B6: CF-025: GSE; antisense, gene for the ND2 subunit of human NADH dehydrogenase (nucleic acid)
antisense: GAAGAAGCAGGCCGGATGTCAGAGGGGTGCCTTGGGTAACCTCTGGGACTCAGAAGTGAAAGGGGGCTATTCCTAGTTTTATTGCTATAGCCATTATGATTATTAATGATGAGTAT
B7: CF-004: GSE; sense, gene encoding human 2-oxoglutarate dehydrogenase (nucleic acid)
sense: GCGCAAAGCACGCGACATGGTGGGGCAGGTGGCCATCACAAGGATTGAGCAGCTGTCGCCATTCCCCTTTGACCTCCTGCTGAAGGAGGTGCAGAAGTACCCCAA
B8: CF-204: GSE; antisense, gene encoding human calnexin (nucleic acid)
antisense: GGTTGTCAATCACAGGTCGCCACCAGACACCACATCCAGGAGCTGACTCACATCTAGGGTTGGCAATCTGAGGAGCCTCCCATTCTCCATCCATGTCTTCATCCCAA
B9: CF-313: GSE; sense, gene encoding a human protein tyrosine phosphatase (nucleic acid)
sense: CATTTTGTTACATAAGGATGACTTTTTTATACAATGGAATAAATTATGGCATTTCTATTGAAATTTCAACGCTTTTGTTTCTTTGGCAACCACAC
B10: CF-311: GSE; antisense, gene encoding a human protein tyrosine phosphatase (nucleic acid)
antisense: GGGGGCTCTGTTTGGTGGTCTCTCTAGCTGCACTGGTCTATCAAGCTGTTGGCTGGTCTCTCTCTCTGGCTGGGGATC
B11: CF-273: GSE; sense, gene encoding human eukaryotic initiation factor 3 (nucleic acid)
sense: GCTCGTCAGTGTCCACCCCTCCTCGCAACTCCAGGCGCTCCTTTTTCTGCTCCATATAGAGCTCCTGGGCCATTTTCCGGTACTTCCGGAAATCTTCCATCATGGTGCGCCTTC
B12: CF-286: GSE; sense, gene encoding human elongation factor 1 alpha (nucleic acid)
sense: CAGTTGGGGTGGGTGTCATCAAAGCAGTGGACAAGAAGGCTGCTGGAGCTGGCAAGGTCACCAAGTCTGCCCAGAAAGCTCAGAAGGCTAAATGAATATTATCCCTAATACCTGCCACCCCACTCTTAATCAGTGGTGGAAGAAC
B13: CF-317: GSE; antisense, gene encoding phosphatidyl-inositol 3 kinase (nucleic acid)
antisense: CCAAGCTTCCTATCTTAAGCTGGGCGTTGATATCCAGGTCACAACTATAGATGTAGTGAAACTTCTCTGCTTCCCCCATCGCACCGTCTGCAAAGGTACCACC
B14: CF-210: GSE; sense, gene encoding human herpesvirus-associated ubiquitin-specific protease (HAUSP) (nucleic acid)
sense: GCATTACAAAGAGTGTTCTATGAATTACAGCATAGTGATAAACCTGTAGGAACAAAAAAGTTAACAAAGTCATTTGGGTGGGAAACTTTAGATAGCTTCATGCAACATGATGTT
B15: CF-302: GSE; antisense, gene encoding CD44 (nucleic acid)
antisense: GATCCCTGGGCGCGGGGCAGGGGCCGGCGGAGGACGGGACGAGGATGGCGGACCGAACCTGGCAGAGGCTGGG
B16: CF-266: GSE; antisense, gene encoding human eukaryotic initiation factor 4B (nucleic acid)
antisense: GCCGTTCTTCTACTTCTCTTTCTCAAGCAGCAGTGTCAACAGGCTTTGCCCCTCCAAAGATAGAAGCAGCTCGAGTGGACTGGGAGGTACTAGCAGA

The molecules below were run on latent HIV-1 provirus in OM10.1 cells (assay: GSE selection by maintained CD4 expression in OM10.1 cells after TNF-α induction). Details: GSE from HL-60 RFE library, selected in OM10.1 cells.
Type: cell-based
Protocol: The libraries prepared from HL-60 cells according to the method of Section 6.1.1. supra, were transfected into the packaging cell line, PA317 (ATCC CRL #9078), and converted into retrovirus for infection of OM10.1 cells. Libraries in pLNCX vector were co-cultured and selected with G418. Libraries in pLNGFRM vector were transduced by spinoculation (centrifugation of target cells at 1200 xg for 90 min. in the presence of filtered retroviral supernatant) and selected by FACS sorting of the NGFR^+ population. After selection, the OM10.1 cells harboring the entire RFE library were induced with 10 U/ml of TNF-α at 37° C., and 24 hours later, were stained with an antibody and sorted for CD4 expression. Genomic DNA from the CD4^+ cells was purified and used for PCR amplification of inserts with the vector-derived primers. The amplified mixture was digested with EcoRI and BamHI and cloned back into the retroviral vector. The selection was repeated for additional rounds.
For the immunofluorescent staining of CD4^+ cells for selection, 10^7 cells were washed twice with Assay Buffer (500 ml PBS, 1 ml of 0.5 mM of EDTA at pH 8, 0.5 ml of 10% sodium azide and 10 ml of fetal bovine serum), and resuspended in 500 μl PBS to which 50 μl of anti-CD4 antibody (Q4120 PE, Sigma) was added. After incubation at 4° C. for 30 min., 5 ml of Assay Buffer was added and the cells centrifuged at 1200 rpm for 4 min. The cells were washed twice with Assay Buffer before sorting by FACS. The aforementioned procedure was performed under sterile conditions.
GSEs derived from cDNAs representing expressed human cellular genes were identified and isolated from a RFE library made from HL-60 cells using HIV provirus activation in OM10.1 cells as a read-out. Following transfection of the entire library into a packaging cell line, retrovirus carrying the library was used to infect OM10.1 cells by co-cultivation or spinoculation, and NGFR selection was performed to ensure the retention of the viral vector. When the infected cells were treated with TNF-α, a small number of residual CD4^+ cells were detected by an anti-CD4 antibody and sorted by FACS. The GSEs contained in these cells were recovered by PCR amplification and their nucleotide sequences determined.

| Molecule | suppression of HIV replication by the GSE |
| --- | --- |
| B1 | suppresses HIV replication |
| B2 | suppresses HIV activities |
| B3 | HIV-suppressive activities |
| B4 | suppresses HIV replication |

Each molecule was assayed on HIV-1IIIB (assay: GSE selection by prevention of productive infection of CEM-ss cells by HIV-1IIIB). Details: GSE from HeLa RFE library, selected in CEM-ss cells.
Type: cell-based
Protocol: Additionally, a normalized RFE library made from HeLa cells was transferred into CEM-ss cells and the neo resistant population was infected with TCID50 of 3000/10^6 cells of HIV-1IIIB. This RFE library was represented by 50×10^6 independent recombinant clones. Four and seven days after infection, a purified anti-CD4 monoclonal antibody, L77 (Becton Dickinson), was added at 5 μg/ml to prevent syncytia formation. Syncytia formation is thought to be prevented by blocking the interaction between gp120 expressed on the surface of an infected cell and CD4 on the surface of an uninfected cell. […] At 10-12 days after infection, CD4^+, p24^− cell population representing uninfected cells were sorted. Genomic DNA from the CD4^+, p24^− cells was purified and used for PCR amplification of inserts with the vector-derived primers. The amplified mixture was digested with EcoRI and BamHI and cloned back into the retroviral vector. The selection was repeated for additional rounds.
(§1) In order to determine p24 expression in HIV-infected cells, the cells were first washed twice with Assay Buffer. About 10^6 cells were suspended in 100 μl Assay Buffer, mixed with 2 ml of Ortho PermeaFix Solution (Ortho Diagnostics), and incubated for 40 min. at room temperature. After centrifugation at 1200 rpm for 4 min. at 4° C., the cells were resuspended in 2 ml Wash Buffer (500 ml PBS, 25 ml fetal bovine serum, 1.5% bovine serum albumin and 0.0055% EDTA) for 10 min. at room temperature. After centrifugation, the cells were resuspended in 50 μl Wash Buffer and mixed with 1:500 dilution of an IgG22, antibody for 20 min. at 4° C., followed by incubation with 5-10 μl of anti-p24 antibody (KC57-FITC, Coulter) for 30 min. at 4° C. The cells were then washed twice with Wash Buffer and analyzed by flow cytometry.

| Molecule | suppression of HIV infection by the GSE |
| --- | --- |
| B5 | suppresses HIV infection |
| B6 | suppresses HIV infection |
| B7 | suppresses HIV infection |
| B8 | suppresses HIV infection |
| B9 | suppresses HIV infection |
| B10 | suppresses HIV infection |
| B11 | suppresses HIV infection |
| B12 | suppresses HIV infection |
| B13 | suppresses HIV infection |
| B14 | suppresses HIV infection |
| B15 | suppresses HIV infection |
| B16 | suppresses HIV infection |

These molecules were tested on latent HIV provirus in OM10.1 cells (assay: Inhibition of TNF-α induction of latent HIV provirus in OM10.1 cells (CD4 / p24 by flow cytometry)). Details: TNF-α-induced OM10.1 cells, 24 hour incubation; FIG. 25, 26.
Type: cell-based, HIV-1
Protocol: OM10.1 cells were cultured in RPMI 1640 glucose-free media prior to and during incubation with NADH dehydrogenase inhibitors and TNF-α induction. The inhibitors were added to the cells followed by TNF-α induction 1-2 hours later. The expression of CD4 by the cells was assessed by anti-CD4 antibody staining and flow cytometry after 24 hour incubation at 37° C.

| Molecule | induction of latent HIV provirus in OM10.1 cells (retention of CD4 expression) |
| --- | --- |
| CCC1(CCC(C)C)C(=O)NC(=O)NC1=O [amytal] | inhibited the induction of latent HIV provirus in OM10.1 cells in a dose-dependent manner |

Same assay, conditions: compared with untreated controls

| Molecule | intracellular p24 levels in treated cells |
| --- | --- |
| CCC1(CCC(C)C)C(=O)NC(=O)NC1=O [amytal] | suppressed intracellular p24 levels |

These molecules were tested on HIV-1SF2 (assay: Protection of GSE-transduced CEM-ss cells from productive infection with HIV-1SF2 (intracellular p24)). Details: HIV-1SF2 at TCID50 of 1000; versus LNGFRM vector control; FIG. 3, 23, 24.
Type: cell-based
Protocol: In Section 6.2, infra, several GSEs were tested for their ability to protect CEM-ss cells from infection with HIV-1 strain SF2. Uninfected cells were transduced with a retroviral construct containing either vector DNA or a GSE polynucleotide. Non-transduced cells were eliminated by selection of NGFR^+ cells by an antibody or by exposure to the selection agent, G-418. The percentage of p24^+ cells was determined at specific time points post infection.
as §1
A total of twenty GSEs were isolated by the two aforementioned selection strategies using OM10.1 and CEM-ss cells. […]

| Molecule | productive HIV infection of GSE-containing CEM-ss cells (intracellular p24+ cells) |
| --- | --- |
| B4 | inhibited infection of human T cells by HIV-1SF2 |
